Data published in article PMC11931385, “Structural and functional analysis of cancer-associated missense variants in the retinoblastoma protein pocket domain” (The Journal of Biological Chemistry, 2025).
Residue numbers refer to the chain shown, from its start. Numbers in names are those of the source. No end group written: not given here. TMR = tetramethyl rhodamine dye

B1: TMR-E2F1^TD, peptide of the E2F1 transactivation domain (peptide)
peptide: {TMR}-GEGIRDLFDCDFGDLTPLD
notes: also called E2F^TD; source: synthetic peptide, bought: GenScript
B2: TMR-E7^LxCxE, LxCxE peptide of the E7 oncoprotein from HPV (peptide)
peptide: DLYCYEQLN
modifications: also: TMR label, position not given here
notes: source: synthetic peptide, bought: GenScript

Columns and labels:
Assay in all cases: fluorescence polarisation; 25 °C; unlabeled Rb^P titrated against 1.5 nM TMR-E2F1^TD or 7.5 nM TMR-E7^LxCxE; 25 mM Tris pH 8.0, 200 mM NaCl, 1 mM DTT, 0.1% Tween-20; 2 min incubation; quadratic fit; apparent Kd for the variants, Kd for WT
Conditions in all cases: both partners purified
[1] = biological target: T1, Rb^P S612P (human, UniProt P06400 380-788, S612P)
T1 construct: also called variant 39
T1 sequence (looked up): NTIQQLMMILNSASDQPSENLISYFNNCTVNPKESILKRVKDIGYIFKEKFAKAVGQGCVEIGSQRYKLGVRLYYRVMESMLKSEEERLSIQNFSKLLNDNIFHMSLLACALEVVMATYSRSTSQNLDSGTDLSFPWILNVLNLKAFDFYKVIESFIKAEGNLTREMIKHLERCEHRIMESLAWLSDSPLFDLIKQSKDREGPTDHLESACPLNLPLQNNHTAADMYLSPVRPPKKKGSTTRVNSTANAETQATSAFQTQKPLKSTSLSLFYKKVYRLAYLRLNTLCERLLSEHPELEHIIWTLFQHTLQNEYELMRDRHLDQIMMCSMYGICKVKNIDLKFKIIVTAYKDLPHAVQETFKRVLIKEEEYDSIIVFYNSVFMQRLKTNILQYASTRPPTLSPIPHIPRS

[2] = biological target: T2, Rb^P A490V (human, UniProt P06400 380-788, A490V)
T2 construct: also called variant 17
T2 sequence (looked up): T1 sequence (looked up) with A111V, P233S

[3] = biological target: T3, Rb^P R556Q (human, UniProt P06400 380-788, R556Q)
T3 construct: also called variant 30
T3 sequence (looked up): T1 sequence (looked up) with R177Q, P233S

[4] = biological target: T4, Rb^P T664A (human, UniProt P06400 380-788, T664A)
T4 construct: also called variant 50
T4 sequence (looked up): T1 sequence (looked up) with P233S, T285A

[5] = biological target: T5, Rb^P H686Y (human, UniProt P06400 380-788, H686Y)
T5 construct: also called variant 58
T5 sequence (looked up): T1 sequence (looked up) with P233S, H307Y

Binder | Kd [1] [nM] | Kd [2] [nM] | Kd [3] [nM] | Kd [4] [nM] | Kd [5] [nM]
B1 | 32 | 48 | 22 | 15 | 20
B2 | 7 | 11 | 5 | 8 | 5
